Assay results reported in the DeepSol protein solubility set.

experiment: soluble on expression in E. coli; label from the status in PepcDB or PDB records

Sequence | soluble on expression in E. coli
SAKFSKQSWGLENEALIVRCPRQGKPSYTVDWYYSQTNKSIPTQERNRVFASGQLLKFLPAAVADSGIYTCIVRSPTFNRTGYANVTIYKKQSDCNVPDYLMYSTVSGSEKNSKIYCPTIDLYNWTAPLEWFKNCQALQGSRYRAHKSFLVIDNVMTEDAGDYTCKFIHNENGANYSVTATRSFTVKDEQGFSLFPVIGAPAQNEIKEVEIGKNANLTCSACFGKGTQFLAAVLWQLNGTKITDFGEPRIQQEEGQNQSFSNGLACLDMVLRIADVKEEDLLLQYDCLALNLHGLRRHTVRLSRKNPSKECF | soluble
MLSMCNKYPDFDDEERVRRVDDDFRDVITVFDAPFEGKSPSPAVIVFDELVDSDGSSKYLNFKMEQSYEKVDEIPEKIDAERIRYAIHLGSHSQKNVLQIFQSAYSDGYTEEDKNGKVPVGGKVKCAETETGFRTKINCENVVTAVNEYMDSNREKFGELRIETLNKAERNLDGYIYFSFLKQKPCRNLFIRIPPLE | not soluble
AMYEKPPVEKLIEELRQLKEKAYKGGGDERIQFQHSKGKLTARERLALLFDDGKFNEIMTFATTRATEFGLDKQRFYGDGVVTGWGKVDGRTVFAYAQDFTVLGGSLGETHANKIVRAYELALKVGAPVVGINDSGGARIQEGALSLEGYGAVFKMNVMASGVIPQITIMAGPAAGGAVYSPALTDFIIMIKGDAYYMFVTGPEITKVVLGEEVSFQDLGGAVVHATKSGVVHFMVDSEQEAINLTKRLLSYLPSNNMEEPPYIDTGDPADRDATGVEQIVPNDAAKPYNMREIIYKIVDNGEFLEVHKHWAQNIIVGFARIAGNVVGIVANNPEEFGGSIDIDAADKAARFIRFCDAFNIPLISLVDTPGYVPGTDQEYKGIIRHGAKMLYAFAEATVPKITVIVRKSYGGAHIAMSIKSLGADLVYAWPTAEIAVTGPEGAVRILYRKEIQQASNPDDVLKQRIAEYRKLFANPYWAAEKGLVDDVIEPKDTRRVIVAGLEMLKTKREYRYPKKHGNIPL | soluble
GMVEPMTPRFKYTKASQENIQQLGNILEQCFVMSFGDSEIYVKGIGLENFRVIYREQKVAGGLAILPMGQWWGGQRVPMAGIAAVGIAPEYRGDGAAIALIQHTLQEISEQDIPISVLYPATQRLYRKAGYEQAGSSCVWEIPTDSIQIQHASLPLEPVVLKNNPIFHELYQQQAQLTHGYLDRHPAIWQGLNRTLDTETLYSYLIGDKDKPQGYIIFTQERTRDGSILRIRDWVTLSNPAVQSFWTFIANHRSQIDKVTWKSSVIDALTLLLPEQSATIRSQDRWMLRIVNVCKALEARGYPLGVEAELHLEVQDDLLATNQGKFILSVANGKSEVTKGGKGELQLDIKGLASLYTSLFTPRQLQLTGKLQATETALLKATQIFAGESPWMIDFF | soluble
MNSRIETFHQMEWHFFSLISMELLSLEGLKACNSGMPIPALNPVFYSGKSTLLVAEIYQCKRFYESHSVPWALMVPDYLSDTKTDNVLAQSGFLSIDQGVAMYLSIQDLGMPGFKSDLLIKRMDNEMETWILPTIPAFESTAEIAKIYRVRHQEAIEKSSDIYHFSGFIQEQIVCSLTLTVMGDCARIDDVATFPKYQKNGYATQLILSELQILKDTNISWCFLEASADGLNIYKKIGFRELFKNLYYEEQYHYEQN | not soluble
MSLKIVLTGSIGRINQTLVPKLTHAGHEVTVISHQATRSSLIKVFRATPAIGRLDDEAFLTKTFMGADVVYLMVTGIAASDDLYTAAKRQADIYAAAIKAAGVKRVVNLSSVGADLGPEVGALYMYHIIEQTLTTALPDVDLTFIRPTAMYYNLLSSVPTVKKSHRIYTNANLAVKNVWVAPVDVTTVLIKALTEPTPGQTVTYVASDEKTYLEVASALSQALKMPDLRVSQVPDEVMQDHLVTAGTPVAFAREYVKTVAYQRDHDFYADYRAHQPRLGDVKLADFAEGHHHHHH | not soluble
MSLTAELQALDAAHHLHPFSANNALGEEGTRVITRARGVWLNDSEGEEILDAMAGLWCVNIGYGRDELAEVAARQMRELPYYNTFFKTTHVPAIALAQKLAELAPGDLNHVFFAGGGSEANDTNIRMVRTYWQNKGQPEKTVIISRKNAYHGSTVASSALGGMAGMHAQSGLIPDVHHINQPNWWAEGGDMDPEEFGLARARELEEAILELGENRVAAFIAEPVQGAGGVIVAPDSYWPEIQRICDKYDILLIADEVICGFGRTGNWFGTQTMGIRPHIMTIAKGLSSGYAPIGGSIVCDEVAHVIGKDEFNHGYTYSGHPVAAAVALENLRILEEENILDHVRNVAAPYLKEKWEALTDHPLVGEAKIVGMMASIALTPNKASRAKFASEPGTIGYICRERCFANNLIMRHVGDRMIISPPLVITPAEIDEMFVRIRKSLDEAQAEIEKQGLMKSEGHHHHHH | not soluble
MAHAGRTGYDNREIVMKYIHYKLSQRGYEWDAGDDVEENRTEAPEGTESEVVHLTLRQAGDDFSRRYRRDFAEMSSQLHLTPFTARGRFATVVEELFRDGVNWGRIVAFFEFGGVMCVESVNREMSPLVDNIALWMTEYLNRHLHTWIQDNGGWDAFVELYGPSMR | soluble
MGVLITGCGSRGDTEPLVALAARLRELGADARMCLPPDYVERCAEVGVPMVPVGRAVRAGAREPGELPPGAAEVVTEVVAEWFDKVPAAIEGCDAVVTTGLLPAAVAVRSMAEKLGIPYRYTVLSPDHLPSEQSQAERDMYNQGADRLFGDAVNSHRASIGLPPVEHLYDYGYTDQPWLAADPVLSPLRPTDLGTVQTGAWILPDQRPLSAELEGFLRAGSPPVYVGFGSGPAPAEAARVAIEAVRAQGRRVVLSSGWAGLGRIDEGDDCLVVGEVNHQVLFGRVAAVVHHGGAGTTTAVTRAGAPQVVVPQKADQPYYAGRVADLGVGVAHDGPTPTVESLSAALATALTPGIRARAAAVAGTIRTDGTTVAAKLLLEAISRQRSSVPAAKLAAALEHHHHHH | soluble
GPHMDAATLTYDTLRFAEFEDFPETSEPVWILGRKYSIFTEKDEILSDVASRLWFTYRKNFPAIGGTGPTSDTGWGCMLRCGQMIFAQALVCRHLGRDWRWTQRKRQPDSYFSVLNAFIDRKDSYYSIHQIAQMGVGEGKSIGQWYGPNTVAQVLKKLAVFDTWSSLAVHIAMDNTVVMEEIRRLCRTSVPCAGATAFPADSDRHCNGFPAGAEVTNRPSPWRPLVLLIPLRLGLTDINEAYVETLKHCFMMPQSLGVIGGKPNSAHYFIGYVGEELIYLDPHTTQPAVEPTDGCFIPDESFHCQHPPCRMSIAELDPSIAVGFFCKTEDDFNDWCQQVKKLSLLGGALPMFELVEQQPSHLACPDVLNLSLDSSDVERLERFFDSEDEDFEILSL | soluble
MAFKLPNLPYAYDALEPYIDQRTMEFHHDKHHNTYVTKLNATVEGTELEHQSLADMIANLDKVPEAMRMSVRNNGGGHFNHSLFWEILSPNSEEKGGVIDDIKAQWGTLDEFKNEFANKATTLFGSGWTWLVVNDGKLEIVTTPNQDNPLTEGKTPILLFDVWEHAYYLKYQNKRPDYMTAFWNIVNWKKVDELYQAAK | not soluble
NVLLLDVTPLTLGIETFGGAFSPLIPRNTTVPVKKTEIFSTGVDGQAGVDIKVFQGERGLVRNNKLIGDLKLTGITPLPKGIPQIYVTFDIDADGIINVSAAEKSSGKQQSITVIPNSGLSEEEIAKLIEEANANRAQDNLIRQRLELISKADIMISDTENLFKRYEKLISSEKEYSNIVEDIKALRQAIKNFKANENDMSIDVNGIKKATDALQGRALKLFQSATKNQQNQGK | soluble
MGSDKIHHHHHHMNETGLLDAYGTEEKEAYIGVIASIATADRVATEDELEYLNALSEAVGINPDVAEAAAKDRSDESLSKYLNALKGSDLRFSLITDIVSFARSDGRYTADEEEKIKNSCRYLGITDEQVTVLEELVEKSNILITIPEEATDEGFFEKNGFSQMLKKANIPLISIVKGLLGLAAPFVLSKMVRSRSLSGSPAAGGLGGQLGGTVLGTFQAGRIGGLGSILANLNGIRGYADIGTILKKAIDKKEINS | not soluble
MNMVAQQMPSPEEIAAQLQMIRDQIAELQGVLAQLELRLRSVQAAKETVEKAAGQDGETLFPGDPELNTILKARLLEPGKAIVHLGLNVYAKLDTAKATEILAKKEDALKRSLETLKQELDKLSRTHDQYLQLLQALTAGQAAQQAGQQQKQGS | soluble
MGSDKIHHHHHHMDLPDSASRVFCGRILSMVNTDDVNAIILAQKNMLDRFEKTNEMLLNFNNLSSARLQQMSERFLHHTRTLVEMKRDLDSIFRRIRTLKGKLARQHPEAFSHIPEASFLEEEDEDPIPPSTTTTIATSEQSTGSCDTSPDTVSPSLSPGFEDLSHVQAGSPAINGRSQTDDEEMTGE | not soluble
MSLKDICLKVFGDYACFTRPEMKVERVSYDIITPSAARAIFEAILWKPAIRWRVTKIEVLKPIRWISVRRNEVGAVASVRTAQTAMQAGRGDLGLYIEEERQQRAGLFLREVAYRLHARCEPTDRKGEQESPDKFLAMFHRRATNGQCFNQPYLGCREFAAHFEPVTNLDAAMADEPPITETRDLGWMLHDIDFANGIQPKFFRAHMQQGVIRVPEWNSEGVKGEGHHHHHH | soluble
SANDKQYISYNNVHQLCQVSAERIKNFKPDLIIAIGGGGFIPARILRTFLKEPGVPTIRIFAIILSLYEDLNSVGSEVEEVGVKVSRTQWIDYEQCKLDLVGKNVLIVDEVDDTRTTLHYALSELEKDAAEQAKAKGIDTEKSPEMKTNFGIFVLHDKQKPKKADLPAEMLNDKNRYFAAKTVPDKWYAYPWESTDIVFHTRMAIEQGNDIFIPEQEHKQ | soluble
VHPLPADHGRSRCNRHPISPLSLIGNASATSGDMSSMTRIAKPLIKSAMAAGLVTASMSLSTAVAHAGPSPNWDAVAQCESGGNWAANTGNGKYGGLQFKPATWAAFGGVGNPAAASREQQIAVANRVLAEQGLDAWPTCGAASGLPIALWSKPAQGIKQIINEIIWAGIQASIPR | not soluble
MSVPGPSSPDGALTRPPYCLEAGEPTPGLSDTSPDEGLIEDLTIEDKAVEQLAEGLLSHYLPDLQRSKQALQELTQNQVVLLDTLEQEISKFKECHSMLDINALFAEAKHYHAKLVNIRKEMLMLHEKTSKLKKRALKLQQKRQKEELEREQQREKEFEREKQLTARPAKRM | soluble
MPLYKLTYFDARGYAEPARILFHLAGVPFEDNRLTHGDGSWEKIKDKTPFGQVPVLSVDGFDIPQSAAIIRYLANKFGYAGKTPEEQAWADAIVDQFKDFMGAFRQLIMAQRSGKPAEEIAKISSEVAIPARDSYFKILNGLLEKSKSGFLVGDGLTFADIVVVENLTTLEKNQFFTASEHPKLSALREKVHAVPAIKTWVATRPDTQF | not soluble
MNPSVKIVVLSLPTATARRSQMSAMLGNTSLDWQYFDAHASLMCPNLHYDGAELRRHFGRNLSPPEIAVCSSHAAILQEFVDRNQADYILVLEDDVIFDTDFPLDQFCAFCASNGLEYVRLFGKHYAKAVHLGFFYDRSIVRFTTSPAGAQAYLMSRMAARRFLDSYQSIRATVDLAMDSFWITQLPIYSIFPYPIIERFSPTSIPMPPHTVEVRGLEHAIWQGARVVNKAKKILTNAKLRKSDESLRQRHWQFRQVGRVDVEQRRDPAAALEHHHHHH | soluble
MQMNSEKFFKLFRVGETVLVEYSGTSRAELLLYYIVNNSKLPIVVDDILDTYYEFYTRLKVAGFDVAPLENVQVIKMGGTKDIGRVIGRLNISKYVISEQEYMEIVSQLKDYPVINPVLGLHKLILLGNTFENINVVKMVSNYVGREERIAFYFVNRNVIEKHSSPILDLLEEVVTSILEITDSGIIIKKSIKDEIAGKIVSPLLNF | soluble
